Measured values: patent US20230391872A1 (ANAPTYSBIO, published 2023)

Columns and labels:
[1] = biological target: T1, human BTLA ECD-his (monomeric human BTLA-his) (human, UniProt Q7Z6A9 31-157); assay: SPR, Biacore T200, antibody captured on anti-human IgG, monomeric human BTLA-his as analyte, 25 °C, 1:1 model; 6G3 IgG4 (APE10840.05) captured on the chip; human BTLA-his analyte
T1 construct: extracellular domain; also called human BTLA extracellular domain
T1 sequence (looked up): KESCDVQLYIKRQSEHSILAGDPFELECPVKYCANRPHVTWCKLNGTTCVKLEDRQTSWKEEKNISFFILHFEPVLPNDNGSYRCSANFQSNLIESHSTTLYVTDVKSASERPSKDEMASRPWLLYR
Experimental: Surface plasmon resonance (SPR) analyses were carried out using a Biacore T200 (GE Healthcare Life Sciences). Kinetic constants were determined using a 1:1 binding model in the Biacore T200 Evaluation Software to calculate on- and off-rates (kₐ and kd, respectively), and dissociation constants as a measure of overall affinity (KD). Anti-human IgG (GE Healthcare Life Sciences) was immobilized on a CMS chip using EDC-activated amine coupling chemistry (420 seconds contact at a flow rate of 10 μl/min). Antibodies (APE10585.04 6G3 IgG1 and APE10840.05 6G3 IgG4), each at 0.5 μg/m1) were captured in a 60 second contact with the flow cell using a flow rate of 10 μl/min. Monomeric human BTLA-his or cynomolgus monkey BTLA-his at 60 nM, 20 nM, 6.7 nM and 2.2 nM concentrations was flowed over captured antibody (480 seconds association, 1800 seconds dissociation). Runs were at 25° C. and used buffer containing 10 mM HEPES, pH 7.6, 150 mM NaCl, 3 mM EDTA, 0.05% polysorbate 20 (HBS-EP+, pH 7.6; Teknova) for the mobile phase and all dilutions. At the end of each cycle, bound antigen was removed by regeneration with two successive exposures (60 seconds and 90 seconds) to 3 M MgCl2 (30 μl/min). Sensorgrams and binding constants corresponding to the experiment are shown in FIG. 1 (human BTLA) and FIG. 1 (cynomolgus monkey BTLA). […]

[2] = biological target: T2, cynomolgus monkey BTLA ECD-his (monomeric cynomolgus monkey BTLA-his) (cynomolgus monkey, UniProt A0A2K5W7M7 31-157); assay: Kinetic Exclusion Assay (KinExA 3000), solution phase, 6G3 IgG4 APE10840.04 at 100 pM, cynomolgus monkey BTLA ECD-his titrated
T2 construct: extracellular domain; also called cynomolgus monkey BTLA extracellular domain
T2 sequence: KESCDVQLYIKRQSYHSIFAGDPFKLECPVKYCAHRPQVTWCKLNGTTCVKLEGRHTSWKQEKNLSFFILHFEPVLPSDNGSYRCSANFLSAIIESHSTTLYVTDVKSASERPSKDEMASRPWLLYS
Experimental: Solution-based affinity measurements of 6G3 IgG4 (APE10840.04 (H Chain SEQ ID NO: 144, L Chain SEQ ID NO: 174)) binding to BTLA were determined on a KinExA 3000 (Sapidyne Instruments). Azlactone beads (ThermoFisher Scientific) were coated with human BTLA ECD-his (30 μg/ml) or cynomolgus monkey BTLA ECD-his (20 μg/ml) in 50 mM Na2CO3 for 2 hours at room temperature and blocked with 10 mg/ml BSA. 6G3 IgG4 APE10840.04 concentration was kept constant at 100 pM for binding in both human and cynomolgus monkey BTLA experiments. Human or cynomolgus monkey BTLA ECD-his was added at 25° C. in 2.5-fold dilutions from 1000 nM to 68 fM. Sample sets were equilibrated at 4° C. for 72 hours and brought to room temperature for 6 hours before capturing free antibody with BTLA-coupled Azlactone beads. […] Maximum and background signals were determined on samples with 6G3 only and buffer only, respectively. Data were analyzed using KinExA Pro Software 3.2.6.

[3] = biological target: T3, cynomolgus monkey BTLA on cells (stably transfected 293c18 clone 1G5); cynomolgus peripheral blood T and B … (cynomolgus monkey, UniProt A0A2K5W7M7 31-289); assay: flow cytometry, AF647-labeled 6G3 IgG4 on cynomolgus monkey peripheral blood CD20+ B cells
T3 construct: whole, on cells; also called cynomolgus monkey BTLA 293c18 cells
T3 sequence: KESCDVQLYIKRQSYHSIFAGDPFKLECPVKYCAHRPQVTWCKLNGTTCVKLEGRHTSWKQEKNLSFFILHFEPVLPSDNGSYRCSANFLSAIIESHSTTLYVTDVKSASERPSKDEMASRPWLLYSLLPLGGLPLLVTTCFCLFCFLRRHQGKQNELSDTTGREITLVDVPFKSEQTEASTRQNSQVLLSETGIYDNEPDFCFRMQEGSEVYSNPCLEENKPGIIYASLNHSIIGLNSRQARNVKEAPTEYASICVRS
Experimental: Blood was then aliquoted into wells and incubated with the indicated concentrations of 6G3-AF647 (APE13766.02), or APC-Mouse Anti-Human CD272 (BTLA) reference antibody (clone J168-540; BD Biosciences) for minutes at room temperature, in the dark. Following incubation, red blood cells were lysed for minutes by addition of 2.0 ml diluted BD Pharm Lyse lysing solution (BD Biosciences), samples centrifuged at 200×g for 5 minutes, washed in FACS Buffer [Dulbecco's PBS, no calcium, no magnesium (Gibco/ThermoFisher Scientific), 25 mM HEPES, pH 7.2, 0.1% BSA, sodium azide] and fixed in 4% paraformaldehyde (200 μl/sample) for 10 minutes at room temperature. Samples were washed twice in FACS Buffer and analyzed for fluorescence on a NovoCyte Quanteon flow cytometer (ACEA Biosciences, Inc.). Data were analyzed using NovoExpress Software (ACEA Biosciences, Inc.). Mean fluorescence intensity (MFI) values were graphed and fit with nonlinear regression analyses in GraphPad Prism (GraphPad Software, Inc.). MFI values for each anti-BTLA antibody on total CD3+cells are shown in FIG. 5A; MFI values for each anti-BTLA antibody on total CD20+cells are shown in FIG. 5B. […] Binding of each anti-BTLA antibody to CD3⁻ cells in FIG. 5C and FIG. 5D (green cells in the bottom quadrants of each panel) reflects the binding to CD20⁺ B cells. […]

B1: 6G3 IgG4 anti-BTLA antibody (APE10840 / APE12839 / APE13308) (antibody, V domains shown)
VH: QVQLVQSGAEVKKPGSSVKVSCKASGYVFSTSWMNWVRQAPGQGLEWMGRIYPGDADTNYVGKFKGRVTITADKSTTTAYMELSSLRSEDTAVYFCAKSGTFNFGNYRWYFDVWGKGTTVTVSS
VL: AIQLTQSPSSLSASVGDRVTITCRVSENIYSHLAWYQQKPGKAPKLLIYAATNLALGVPSRFSGSGSGTDYTLTISSLQPEDFATYYCQLFWGPPLTFGGGTKVEIKR
notes: Humanized antibody from a mouse hybridoma, tested as human IgG4 (detected with anti-human kappa); Some assays used labelled lots (DyLight 650, AF647, biotin, DyL488); also called 6G3 antibody; APE10840.03
- Kd [1]: ~5 nM
- Kd [2]: ~1.66 nM
- EC50 [3]: ~1.4 nM
